Data on 1 protein can be found in patent US20150306241.

The data set concerns the target T1, PEG2000-peptide-PTX.
T1 chain: GPLGIAGQ

B1: Human active MMP2 protein (MW 66,000 Da) (protein)
chain: YNFFPRKPKWDKNQITYRIIGYTPDLDPETVDDAFARAFQVWSDVTPLRFSRIHDGEADIMINFGRWEHGDGYPFDGKDGLLAHAFAPGTGVGGDSHFDDDELWTLGEGQVVRVKYGNADGEYCKFPFLFNGKEYNSCTDTGRSDGFLWCSTTYNFEKDGKYGFCPHEALFTMGGNAEGQPCKFPFRFQGTSYDSCTTEGRTDGYRWCGTTEDYDRDKKYGFCPETAMSTVGGNSEGAPCVFPFTFLGNKYESCTSAGRSDGKMWCATTANYDDDRKWGFCPDQGYSLFLVAAHEFGHAMGLEHSQDPGALMAPIYTYTKNFRLSQDDIKGIQELYGASPDIDLGTGPTPTLGPVTPEICKQDIVFDGIAQIRGEIFFFKDRFIWRTVTPRDKPMGPLLVATFWPELPEKIDAVYEAPQEEKAVFFAGNEYWIYSASTLERGYPKPLTSLGLPPDVQRVDAAFNWSKNKKTYIFAGDKFWRYNEVKKKMDPGFPKLIADAWNAIPDNLDAVVDLQGGGHSYFFKGAYYLKLENQSLKSVKFGSIKSDWLGC
In the case of B1, the “enzymatic digestion followed by TLC (5 ng/µL human MMP2)” value is “the MMP2 completely cleaved the peptide linker resulting in two digestion fragments (IAGQ-PTX and PEG-GPLG)”.
